Test results from patent US20040143095A1.

Key:
[1] = biological target: rat CRF receptor type 2α (rat) (UniProt P47866); experiment: radioligand displacement ([125I-Tyr0,Glu1,Nle17]-sauvagine), CHO membranes
[2] = biological target: mouse CRF receptor type 2β (mouse) (UniProt Q60748); experiment: as above

rat CRF receptor type 2α (rat), sequence (P47866 20-411): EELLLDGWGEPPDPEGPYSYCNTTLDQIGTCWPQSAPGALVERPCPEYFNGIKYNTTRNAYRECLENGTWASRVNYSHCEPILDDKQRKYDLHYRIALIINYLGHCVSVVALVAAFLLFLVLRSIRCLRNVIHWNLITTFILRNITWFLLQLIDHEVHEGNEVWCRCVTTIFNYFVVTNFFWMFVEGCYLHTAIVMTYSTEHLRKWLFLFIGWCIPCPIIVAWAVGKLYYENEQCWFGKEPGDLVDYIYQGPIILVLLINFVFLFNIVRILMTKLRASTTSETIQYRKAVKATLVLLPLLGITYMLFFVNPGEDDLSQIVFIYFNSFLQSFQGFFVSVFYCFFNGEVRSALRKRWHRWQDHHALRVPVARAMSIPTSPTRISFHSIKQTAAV

| Ki [1] | Ki [2] | Substance |
| --- | --- | --- |
| 10.1 nM | 5.2 nM | CRF (rat/human) (from UniProt P06850 154-194) (peptide) |
| 2.2 nM | 0.62 nM | Urocortin (rat) (from UniProt P55090 81-120) (peptide) |
